Laboratory results as given in patent publication US20220401524A1.

Columns and labels:
complement C1q (human) [1] = molecular target: complement C1q (human) (UniProt P02745); assay: flow cytometry, vWF (10 µg/ml) bound to C1q immobilized on cholesterol crystals, mean of n=5
complement C1q (human) [2] = molecular target: complement C1q (human) (UniProt P02745); assay: flow cytometry, vWF on cholesterol crystals with C1q against crystals without C1q
complement C1q (human) [3] = molecular target: complement C1q (human) (UniProt P02745); assay: cell-based or functional assay

Chain of UniProt P02745 (P02745 23-245, chain 1 of 3): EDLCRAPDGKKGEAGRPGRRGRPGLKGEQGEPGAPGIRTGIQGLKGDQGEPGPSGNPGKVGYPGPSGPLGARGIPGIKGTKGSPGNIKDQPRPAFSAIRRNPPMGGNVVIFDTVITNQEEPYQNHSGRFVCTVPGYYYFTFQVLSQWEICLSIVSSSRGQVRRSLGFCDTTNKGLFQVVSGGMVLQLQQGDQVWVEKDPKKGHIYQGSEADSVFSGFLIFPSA
Chain of UniProt P02745 (chain, as listed by the source, chain 2 of 3): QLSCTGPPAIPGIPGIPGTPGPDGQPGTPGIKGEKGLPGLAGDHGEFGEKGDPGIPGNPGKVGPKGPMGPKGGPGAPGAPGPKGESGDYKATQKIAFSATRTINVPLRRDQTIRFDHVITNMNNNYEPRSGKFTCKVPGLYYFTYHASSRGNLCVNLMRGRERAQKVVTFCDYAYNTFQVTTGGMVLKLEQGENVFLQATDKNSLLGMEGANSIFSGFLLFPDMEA
Chain of UniProt P02745 (chain, as listed by the source, chain 3 of 3): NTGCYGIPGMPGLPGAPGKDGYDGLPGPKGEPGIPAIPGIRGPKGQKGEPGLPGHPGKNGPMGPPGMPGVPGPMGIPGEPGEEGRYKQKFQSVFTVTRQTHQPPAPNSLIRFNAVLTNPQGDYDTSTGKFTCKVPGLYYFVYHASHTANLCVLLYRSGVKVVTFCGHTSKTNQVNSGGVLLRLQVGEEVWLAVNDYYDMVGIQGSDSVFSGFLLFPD

- gMFI (complement C1q (human) [1]): 134000 gMFI
- fold gMFI against CC without C1q (complement C1q (human) [2]): 67 fold
- caspase-1 activity of HMDMs (% CD11c+ cells in FLICA+ gate) (complement C1q (human) [3]): 9.37%
- early phagocytosis of pHrodo-dyed CC complexes by HMDMs (30 min, % CD11c+ cells in pHrodo Red Ester+ gate) (complement C1q (human) [3]): 54.5%
- late phagocytosis of CC complexes by HMDMs (18 hr, % CD11c+ cells in SSC high gate) (complement C1q (human) [3]): 13.7%
Substance: recombinant von Willebrand factor (from UniProt P04275 764-2813) (ligand)
